Measured values taken from patent publication US20150175666A1 (YEDA RESEARCH AND DEVELOPMENT, published 2015).
Ends that are not written are not given here. * marks the point of attachment. NBD = O=[N+]([O-])c1ccc(*)c2nonc12

Assays:
[1] = molecular target: T1, TCR of MOG35-55-specific murine line T cells (mMOG35-55 T cells) (mouse, UniProt A2KF29); test: cell-based or functional assay
[2] = molecular target: T1, TCR of MOG35-55-specific murine line T …; test: cell-based or functional assay; remark: listed apart in the source
[3] = molecular target: T2, NBD-labeled core peptide of the TCRα TMD (GLRILLLKV; SEQ ID NO: 14); test: NBD fluorescence of NBD-CP on PC:Chol LUVs, sequential doses of unlabeled peptide
T2 construct: also called NBD-CP; CP
T2 peptide: {NBD}-GLRILLLKV

T1 sequence (A2KF29 whole entry): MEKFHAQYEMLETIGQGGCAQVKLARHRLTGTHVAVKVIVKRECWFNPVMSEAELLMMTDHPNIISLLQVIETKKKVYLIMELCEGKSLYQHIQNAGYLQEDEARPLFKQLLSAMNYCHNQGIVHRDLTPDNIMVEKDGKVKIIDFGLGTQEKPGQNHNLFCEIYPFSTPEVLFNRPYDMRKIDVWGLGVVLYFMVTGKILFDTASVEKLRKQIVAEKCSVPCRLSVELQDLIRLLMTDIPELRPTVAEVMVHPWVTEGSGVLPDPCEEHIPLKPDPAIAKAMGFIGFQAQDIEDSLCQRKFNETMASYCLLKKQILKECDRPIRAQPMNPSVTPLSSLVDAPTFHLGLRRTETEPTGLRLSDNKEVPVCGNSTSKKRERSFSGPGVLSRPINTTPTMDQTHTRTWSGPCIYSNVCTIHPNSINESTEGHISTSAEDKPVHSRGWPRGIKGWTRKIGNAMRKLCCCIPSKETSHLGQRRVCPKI

B1: pep 6 (SNKSLEQIWNHTTWMEWD), gp41 derived peptide, unlabeled (peptide)
peptide: SNKSLEQIWNHTTWMEWD
For B1, the “IC50 (µM), inhibition of MOG35-55-specific T-cell proliferation” value [1] was 0.55 µM, the “inhibitory concentration at 50% proliferation (IC50), MOG35-55-specific T-cell proliferation” value [2] was 1 µM and the binding result [3] was “binds”.

B2: control mutant peptide (SNKSLEQIWNHTTWMGWG, SEQ ID NO: 10), unlabeled (peptide)
peptide: SNKSLEQIWNHTTWMGWG
notes: pep 6 with the conserved acidic residues (Glu and Asp) mutated to Gly
B2: binds [3].

B3: control mutant (W/G) peptide (SNKSLEQIGNHTTGMEGD, SEQ ID NO: 9), unlabeled (peptide)
peptide: SNKSLEQIGNHTTGMEGD
notes: Unlabeled form used in the NBD-CP fluorescence experiment
B3: binds [3].
